Data: patent US20250235548A1, “ANTIBODY-DRUG CONJUGATES TARGETING NAPI2B AND METHODS OF USE” (Zymeworks BC Inc., priority 2022, published 2025)

Assays:
[1] = target: human sodium-dependent phosphate transporter 2B (NaPi2b) (human) (UniProt O95436); experiment: flow cytometry competition, HEK293-6e cells expressing human NaPi2b; row antibody unlabeled at 100 ug/mL (the reference of the calculation); competitor: AF647-labeled v23855 at 1 ug/mL
[2] = target: human sodium-dependent phosphate transporter 2B (NaPi2b) (human) (UniProt O95436); experiment: flow cytometry competition, HEK293-6e cells expressing human NaPi2b; row antibody unlabeled at 100 ug/mL (the reference of the calculation); competitor: AF647-labeled v18992 (MX35) at 1 ug/mL
[3] = target: human sodium-dependent phosphate transporter 2B (NaPi2b) (human) (UniProt O95436); experiment: flow cytometry competition, HEK293-6e cells expressing human NaPi2b; row antibody unlabeled at 100 ug/mL (the reference of the calculation); competitor: AF647-labeled v18993 (lifastuzumab) at 1 ug/mL
[4] = target: human sodium-dependent phosphate transporter 2B (NaPi2b) (human) (UniProt O95436); experiment: flow cytometry competition, HEK293-6e cells expressing human NaPi2b; row antibody unlabeled at 100 ug/mL (the reference of the calculation); competitor: AF647-labeled v16955 (negative control) at 1 ug/mL
[5] = target: Fcγ receptor (FcγR) on the surface of immune effector cells; experiment: cell-based or functional assay

Chain of human sodium-dependent phosphate transporter 2B (NaPi2b) (human) (O95436 whole entry): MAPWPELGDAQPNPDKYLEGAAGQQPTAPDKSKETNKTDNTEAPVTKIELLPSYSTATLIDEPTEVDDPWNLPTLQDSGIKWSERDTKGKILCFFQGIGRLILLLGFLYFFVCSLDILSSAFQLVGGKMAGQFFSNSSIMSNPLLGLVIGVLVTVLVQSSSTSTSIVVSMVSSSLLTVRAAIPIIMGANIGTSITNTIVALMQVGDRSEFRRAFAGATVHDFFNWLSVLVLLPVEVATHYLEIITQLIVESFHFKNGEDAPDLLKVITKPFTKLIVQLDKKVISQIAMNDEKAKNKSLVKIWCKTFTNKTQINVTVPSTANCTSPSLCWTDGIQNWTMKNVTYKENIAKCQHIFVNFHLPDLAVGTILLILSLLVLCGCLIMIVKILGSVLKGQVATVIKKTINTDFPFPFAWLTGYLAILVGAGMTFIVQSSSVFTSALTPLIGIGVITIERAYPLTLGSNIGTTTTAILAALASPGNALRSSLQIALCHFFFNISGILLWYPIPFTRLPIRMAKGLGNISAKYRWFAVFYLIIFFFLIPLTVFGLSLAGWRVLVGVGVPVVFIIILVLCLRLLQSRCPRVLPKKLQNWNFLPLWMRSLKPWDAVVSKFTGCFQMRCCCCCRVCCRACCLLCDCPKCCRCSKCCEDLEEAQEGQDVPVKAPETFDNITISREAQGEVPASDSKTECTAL

% Inhibition vs. irrelevant mAb [1] | % Inhibition vs. irrelevant mAb [2] | % Inhibition vs. irrelevant mAb [3] | % Inhibition vs. irrelevant mAb [4] | % ADCC at 0.0192 nM (25 PBMCs:1 IGROV-1) [5] | % ADCC at 0.48 nM (25 PBMCs:1 IGROV-1) [5] | % ADCC at 12 nM (25 PBMCs:1 IGROV-1) [5] | Substance
0% | 0% | 0% | 0% |  |  |  | v16955 (Palivizumab), anti-RSV negative control antibody
 |  |  |  | 5.96% | 14% | 14.4% | v18993 (lifastuzumab) (antibody)
